The target of test [1] is Vascular endothelial growth factor (VEGF) (Homo sapiens (Human)) (UniProt P15692). Briefly: surface plasmon resonance (BIAcore), sFlt-1 construct immobilized on the chip, VEGF165 injected at 0.2 to 15 nM; column Ka. (In SPR one partner is held on a chip, and binding of the other changes the refractive index at the surface.)
For test [2] the target is unchanged. In words: surface plasmon resonance (BIAcore), sFlt-1 construct immobilized on the chip, VEGF165 injected at 0.2 to 15 nM; column Kd.
Test [3] shares this target. Briefly: surface plasmon resonance (BIAcore), sFlt-1 construct immobilized on the chip, VEGF165 injected at 0.2 to 15 nM; the column head prints KD (nM), but the printed Kd/Ka (1.22e-3 / 2.71e6) gives about 4.5e-10 M.
Test [4] has as its target T1, Vascular endothelial growth factor (VEGF) (Homo sapiens (Human), UniProt P15692 181-395).
T1 construct: also called VEGF165; VEGF A
T1 sequence: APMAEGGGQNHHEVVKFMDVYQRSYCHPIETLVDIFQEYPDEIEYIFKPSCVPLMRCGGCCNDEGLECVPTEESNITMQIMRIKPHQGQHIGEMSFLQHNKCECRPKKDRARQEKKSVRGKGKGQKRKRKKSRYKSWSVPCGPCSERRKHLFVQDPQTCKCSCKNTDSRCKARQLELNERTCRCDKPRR
In words: solution binding assay: serially diluted conditioned medium with soluble receptor mixed with 10 pM VEGF, unbound VEGF measured by ELISA. As to the method:
FIG. 11. VEGF “in vitro” binding assay. Conditioned media from 293 cells containing known concentrations of both D2-9Gly-Fc and Flt-1 D(1-3) control soluble receptors (ranging in concentrations from 0.29-150 pM) were serially diluted and mixed with 10 pM VEGF. The amount of unbound VEGF was then measured by ELISA. D2-9Gly-Fc binds VEGF with higher affinity than all other constructs. “n” represents the number of independent experiments (transfection and binding assay).
Briefly, conditioned media containing known concentrations of soluble receptor (ranging in concentrations from 0.29-150 pM) were serially diluted and mixed with 10 pM VEGF. The amount of unbound VEGF was then measured by ELISA. […] D2-CH3 has the lowest affinity to bind VEGF (FIG. 11).

Data on 4 molecules can be found in patent publication US20070224178A1 (Sanofi, published 2007).

Molecule “rFlt-1(Fc)(R&D) (from UniProt P17948-2) (Fc fusion)” came in with a kon in test [1] of 2.71e+06 M⁻¹ s⁻¹. In addition, the koff in test [2] was found to be 0.00122 s⁻¹. In test [3], this molecule had a Kd of 448 pM.

B1: D2-9Gly-Ex3/CH3 (other)
chain: PFVEMYSEIPEIIHMTEGRELVIPCRVTSPNITVTLKKFPLDTLIPDGKRIIWDSRKGFIISNATYKEIGLLTCEATVNGHLYKTNYLTHRQTGGGGGGGGGPSCVPLMRCGGCCNGQPREPQVYTLPPSREEMTKNQVSLTCLVKGFYPSDIAVEWESNGQPENNYKTTPPVLDSDGSFFLYSKLTVDKSRWQQGNVFSCSVMHEALHNHYTQKSLSLSPGK
notes: domain: Flt-1 domain 2; Conditioned medium of transfected 293 cells
On to B1, for which the “IC50 (read off the curve)” value in test [4] was approximately 0.9 pM.

B2: D2-9Gly-CH3 (other)
chain: PFVEMYSEIPEIIHMTEGRELVIPCRVTSPNITVTLKKFPLDTLIPDGKRIIWDSRKGFIISNATYKEIGLLTCEATVNGHLYKTNYLTHRQTGGGGGGGGGGQPREPQVYTLPPSREEMTKNQVSLTCLVKGFYPSDIAVEWESNGQPENNYKTTPPVLDSDGSFFLYSKLTVDKSRWQQGNVFSCSVMHEALHNHYTQKSLSLSPGK
notes: as for B1
For B2, in test [4], the “IC50 (read off the curve)” value is approximately 0.5 pM.

B3: D(1-3) (receptor, human (by the accession given in p-0034), UniProt P17948 27-328, looked up)
soluble receptor fragment: SKLKDPELSLKGTQHIMQAGQTLHLQCRGEAAHKWSLPEMVSKESERLSITKSACGRNGKQFCSTLTLNTAQANHTGFYSCKYLAVPTSKKKETESAIYIFISDTGRPFVEMYSEIPEIIHMTEGRELVIPCRVTSPNITVTLKKFPLDTLIPDGKRIIWDSRKGFIISNATYKEIGLLTCEATVNGHLYKTNYLTHRQTNTIIDVQISTPRPVKLLRGHTLVLNCTATTPLNTRVQMTWSYPDEKNKRASVRRRIDQSNSHANIFYSVLTIDKMQNKDKGLYTCRVRSGPSFKSVNTSVHI
notes: soluble fragment, Ig-like domains 1-3; made in conditioned medium of 293 cells; also called Flt-1 D(1-3) control soluble receptor
With B3, the “IC50 (read off the curve)” value in test [4] is approximately 1 pM.

As usually defined, the kon is a measure of how fast the partners come together. A higher kon goes with faster complex formation. A word on the koff: it is a measure of how fast the partners let go of each other. Low values mean slow dissociation, high ones fast dissociation. As usually defined, the Kd is the concentration at which binding is half-saturated. Low readings indicate tighter binding, high ones weaker binding.
